Assay results: the supplement of paper PMC10126150
± gives the standard deviation of the averaged measurements.

Tested on: ATP
Experiment: switch fluorescence ratio, 500 uM ATP over buffer (Cy3 cluster intensity, sum of 5 cycles each) (fold (ratio)); higher = stronger signal-on switching upon ATP binding; sequences stand for … in TCGTCGGCAGCGTCAGATGTGTATAAGAGACAGTTTTTTTTTTTTTTTTTTTTTTTTT…TC
Conditions: aptamer strand: ATP DNA aptamer (quencher-CACCTGGGGGAGTATTGCGGAGGAAGG + anchor), 100 nM annealed; ATP concentration: 500 uM
Summary of the method: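 Exposure to 500 uM ATP lasted 15 min at 22 °C before imaging, and a selection-buffer image was taken beforehand, for Cy3-labelled switching-strand clusters on a modified Illumina MiSeq flow-cell annealed to 100 nM quencher-labelled ATP aptamer. Five buffer/ATP cycles were run with NaOH stripping and re-annealing between them. The fluorescence ratio per cluster is summed target-cycle over summed buffer-cycle Cy3 intensity, averaged per switch-domain sequence. Clusters outside 100-1000 RFU were excluded.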

Sequence	switch fluorescence ratio
CAAGGGGGGT	1 ± 0.019
TGTTGGGGAT	0.983 ± 0.029
GGCCCCGGGT	1.18 ± 0.057
GGGTTTGAGA	1.005 ± 0.0042
TTTATTGGAA	0.9858 ± 0.0091
GGTTGAAATG	0.939 ± 0.072
CTTGTGAGTT	0.979 ± 0.016
TGACCGAAAC	1.2 ± 0.051
TAGACTATGG	1.04 ± 0.023
CGGTGGGGGC	0.9806 ± 0.0057
GTTCACTGGG	0.994 ± 0.022
TCTGGTTAGT	1.01 ± 0.066
ATGCGAAGTG	1 ± 0.039
TGATTAAGGG	0.9752 ± 0.0072
GTTTTTTAGT	0.988 ± 0.023
TTTAGGGTGT	1.05 ± 0.071
GCATTGTGTT	0.991 ± 0.052
TCCACAGTGG	1.35 ± 0.41
TAGGGCGGTT	0.98 ± 0.046
ATGGGCACA	0.99899 ± 0.00092
TTGTTGTGCT	0.961 ± 0.033
ACCGCTTACG	1.56 ± 0.12
TGGTGGTGGG	1.02 ± 0.018
GGGACCGACT	1.05 ± 0.016
CACTGTGGGT	0.9744 ± 0.0046
TAAGAAGGGG	1.02 ± 0.023

Sequence	switch fluorescence ratio
CGTGCCGGGG	0.968 ± 0.053
TTTAAAGAAT	1.04 ± 0.079
ATTAGTTATA	0.975 ± 0.029
GGCCTTTTGA	0.997 ± 0.015
ACGGGTGTAG	0.989 ± 0.052
GGGTGCCGGG	0.911 ± 0.12
TACGCTTCAT	1.02 ± 0.011
AAAACTTTTG	1.02 ± 0.038
TTGGGAACGG	1.03 ± 0.034
TGTTGGGATG	1.01 ± 0.02
TTGCTTCGGC	0.976 ± 0.04
GATATCACTG	1.02 ± 0.016
GGGACCGAAC	1.13 ± 0.029
TTGAGGTGCG	1.01 ± 0.026
GTTGAGGGGA	1.01 ± 0.058
TATGGGAAGA	0.985 ± 0.027
GTTAGATTGA	0.96 ± 0.041
ACGCCTACGA	1.15 ± 0.09
GCTATGAGTA	0.9832 ± 0.0097
TTAAAGCGGG	1.01 ± 0.012
TTTAACAGTT	1.01 ± 0.051
ACATAGGTCA	1.02 ± 0.022
AAATTTTGAA	0.977 ± 0.021
CGTTTGAATA	0.974 ± 0.052
AAACCGGGGT	1.66 ± 0.94
GAGGAGGGAG	0.998 ± 0.014

Sequence	switch fluorescence ratio
TATTAAATTG	0.9975 ± 0.0028
GGGTGTGAAC	0.9859 ± 0.0046
CGAAGCAGCG	1.4 ± 0.044
TTAATCAGAT	0.9533 ± 0.0093
ATTAGAGGTG	1.08 ± 0.03
GACCACAT	1.05 ± 0.004
AAAGTGTTTG	1.02 ± 0.016
GCTACTACTG	1.05 ± 0.022
AAGGGGAGGG	1 ± 0.013
AGGGGAATCG	1.01 ± 0.016
GGTGAGGGTA	0.991 ± 0.012
AGGCTTACTC	1.39 ± 0.028
ATGCTATCGT	1.02 ± 0.014
CAGCTTTCGG	1.03 ± 0.048
TTGGCTTTTA	0.99017 ± 0.00047
GGTCGCCGGG	0.976 ± 0.081
TGTGGGGTGG	0.999 ± 0.025
TGAATGGGGG	1.01 ± 0.045
TTAGTAGGTC	0.992 ± 0.047
CGGGTAAGTG	0.97 ± 0.014
CCAAGTTGTG	1.03 ± 0.074
TTACTTACTT	1.28 ± 0.081
TTACTGGATA	0.987 ± 0.046
CTTAGAATGA	0.979 ± 0.025
GTGGTATTAT	1.01 ± 0.021
AAGGGACATT	1.01 ± 0.012

Sequence	switch fluorescence ratio
ATTAGACATT	1.003 ± 0.0016
TAGACAAAAA	1.08 ± 0.12
ATTTTAGTGT	0.968 ± 0.029
GCAGATCGAT	1.03 ± 0.015
AAGAAGGTCC	1.01 ± 0.019
AAATCTCGGA	1.2 ± 0.31
TTATATTCGC	1.02 ± 0.084
GCGGGGGTGC	1.03 ± 0.048
CTGAAGGGAT	1.05 ± 0.023
TGAGAGATTT	0.984 ± 0.011
TTGGTTGTAT	1 ± 0.011
GAACTTGCCA	1.06 ± 0.073
TCCGGAGGGT	1.05 ± 0.06
TCGGGGGAAG	1.01 ± 0.038
ATGTAGAGGT	0.9803 ± 0.0074
AAATAGGGTA	0.993 ± 0.023
GCCTGTATAG	0.9958 ± 0.0052
GTGTTGCCGA	1 ± 0.079
GGCTTGGAGC	0.996 ± 0.025
CCATAGTGAC	2.18 ± 0.18
CCTAATAGGG	0.9929 ± 0.0033
ACGGGGCTTT	1.05 ± 0.024
AGCTGCTTGC	1.04 ± 0.066
GGGGTTATGT	0.979 ± 0.021
TTTCAGACAG	0.9921 ± 0.0014
GGCGGTTTGT	1 ± 0.028

Sequence	switch fluorescence ratio
GCAAATGGGG	1.02 ± 0.033
CGGTGCATGG	0.991 ± 0.1
GAAGTGAGGG	0.995 ± 0.017
TTATGGTCCG	0.976 ± 0.045
AGGGTAATCA	0.993 ± 0.03
ACTGAAGTTA	0.98 ± 0.018
TTGAGACTGT	0.971 ± 0.052
TGGGCCGGTA	1.02 ± 0.031
ATGTACTTTA	1.06 ± 0.028
AATGCATGGG	0.989 ± 0.046
TAATTCACCA	1.18 ± 0.18
TTGGTTGGAG	0.996 ± 0.021
CTTCAGTCTT	1 ± 0.011
GAGTAAGACA	0.99 ± 0.013
GTGATTTTGT	1.01 ± 0.032
TATGGGCTAC	1.56 ± 0.74
CCCTTTTTTT	1.07 ± 0.037
CTAGGTATAG	1.006 ± 0.0072
TCCGGGTTGG	1.03 ± 0.013
TATTTTATAT	0.943 ± 0.021
GCTGTTGGAA	0.985 ± 0.012
ACGGGTCCGT	0.986 ± 0.011
TTATTCGGGA	1.02 ± 0.031
TCGGGGGGAA	1.06 ± 0.057
CGGAAAGGGT	1.01 ± 0.027
TGATTGCCCG	0.9376 ± 0.0077

Sequence	switch fluorescence ratio
GGAGTGGGAC	1.12 ± 0.14
TAGGAGCGAT	1.15 ± 0.031
TTTAACTAGA	1.041 ± 0.0061
TGTTGTCAAG	1.01 ± 0.026
TGTTGTTGTA	1.015 ± 0.0081
AAGTGTGGGT	1 ± 0.075
ATGAGGGTCT	0.999 ± 0.044
TGAGTTGGAC	1.08 ± 0.067
CCGTATATAT	2.55 ± 0.096
GGGGACCAAC	1.03 ± 0.021
CCAAGGCAGG	1.35 ± 0.069
CAGGGCAATG	1.2 ± 0.045
GGTCCTGGGC	1.01 ± 0.013
TGTTTAATTT	1.03 ± 0.072
AGAGAAAGTA	0.98799 ± 0.0004
TTGTTAAAGT	1 ± 0.038
TCGAGCCCCA	1.04 ± 0.087
GGGGCGGCTA	0.984 ± 0.029
CCGGACAGCG	0.99 ± 0.038
TAGTGGGGTA	0.98 ± 0.032
CATGAAAGAC	1.05 ± 0.041
AAAATTAGGT	0.9779 ± 0.0093
GTTACAAGCG	0.994 ± 0.018
